Measurements: the DeepSol protein solubility set

Assay: soluble on expression in E. coli; label from the status in PepcDB or PDB records

## MGSDKIHHHHHHMAIKILSVDDEQDLEALLTQYFRRKIRKGEYEFSFAHNGLEALRMMLDHPDFDIILSDINMPEMDGLTLLTKINEMRNPALKCIIVSAYGDMENIRTAMNHGAFDFATKPIDMEDLERTIEKAVEQISFIKEAQKEHHQLEEIQYDLNVAREIQQSILPKQFPPFPQYKQFDLYATMSAAKAVGGDFYDFFLVDDNHLGFTIADVSDKGIPAAIFMAISRTVIRATALRQLSPAVCMKESNDLLCRESVNGMFVTTFYAILNIHTGDVVYCNGGHNRPVWIRKNDKVSLLPMTGGMALGVVPGLAYKEQSLKLEAGDSLFLYTDGISEAMNLRNEQYGDIRLVEACSSVKNQSPKSMIEGISESVQSFVNGATQSDDITMLALTYKG
  soluble on expression in E. coli: not soluble

## MSLNKLCVAALSVNNFCDNREALYGVFDGDRNVEVPYLLQCTMSDILAEELQKTKNEEEYMVNTFIVMQRKLGTAGQKLGGAAVLCHIKHDPVDPGGSFTLTSANVGKCQTVLCRNGKPLPLSRSYIMSCEEELKRIKQHKAIITEDGKVNGVTESTRILGYTFLHPSVVPRPHVQSVLLTPQDEFFILGSKGLWDSLSVEEAVEAVRNVPDALAAAKKLCTLAQSYGCHDSISAVVVQLSVTEDEGHHHHHH
  soluble on expression in E. coli: not soluble

## MENKEVIIIGAGAAGVGMGVALKDFGINNFAILERKQVGNSFIKWPEQTRFITPSFTSNGFGMPDLNAIAIDTSPSYTLGEERLSGKDYAKYLQLVSEEYKLPIKTNCKVQSIKKEKTGYLLETTKGFIYAEYVIFAMGEFSFPNKSSIKGAYKNSLHYGEINSWIEIKGDKQTIIGGNESAIDAAIELAKLGKRVTIYTDTLGLNIRDADPSKRLAPRTRQRFFDLRVNQKKLDSIKIYTTTKVKKIEKKSTSYILITENGKSLPVENIPILCTGFKNGTKSITASLFKYKENGEVLLNDFDESTIAKNIFLTGPNVRKGNTIFCYIYKFRQRFAVIANEIARRKHITIDEKKLSYYKNQSFYLDGCSGCEVRCSCLEHHHHHH
  soluble on expression in E. coli: soluble

## MNKIALFVDVQNIYYTCREAYQRQFNYRKLWQHLSTQGEIVSAVAYAIHRGDDGQLKFQDALRHIGFELKLKPFIQRSDGSAKGDWDVGITIDVLDAAPNVDTVILLSGDGDFAILLEKITQKYGVKAEVYGVPQLTAKALMDATTQFNPIDDVLLL
  soluble on expression in E. coli: soluble

## MFISCFDMFKIGIGPSSSHTLGPMKAGKAFVDTLEERDLLDRVTRVRADVYGSLSLTGIGHATDKAIIMGLAGFEPETVDIDAMPGFLEIVASLQRLALAGGKKTVDFSRTEGIVFHNTCLQLHENGMTITAFEGDEVLLTKAYFSIGGGFIVDKEHFGLPVEDTAVVPFPYNTAEEVLAHCDREGMSIPEFAWRNEVAANGEEAVREHLAKVWKVMQSGIERGSSAEGILPGDLRVPRRAKALRERLEATSENEPLRMMSWLNMFAMAVNEENASGGRVVTSPTNGACGVLPAVLSYWDRLVKPVGEQEVIDYLLTCGVVGALYKKNASISGAEVGCQGEVGVACSMAAAGIAQLMGATPAQAFAAAEIAMEHNLGLTCDPVCGQVQVPCIERNAIAAVTSVNAANMSLQRGSTPTVSLDQVIQTMYQTGKDMDSKYRETSLGGLAKVLMPRLMPCS
  soluble on expression in E. coli: not soluble

## AHHHHHHGSKVYYPGREWPEEYKRVLEKMKEIIDPVTGDNILDSGVVAGLEVKDRTLKVWLRFESQAEYNILGGAAMAYSKIVGDIMEKFALVMFDNVYVYDLRNNIVGVFEKKK
  soluble on expression in E. coli: not soluble

## MAHHHHHHMCAKESCRAVNQGIRKECESCGTEKPQLLGWKCEGCSTINHAGVRKCKKCADASDKSKEFWMCAVCHENNRVDEIEDNSRCGFCGYDMAPHSVAEEEILRRATEKTVMLQQQQEHFDSVSYTEADEQFTNPLEGAEALDPSLRAIHPGSEAPITGRVLKLPAVAPFVAGGVPETRHSPLHQRRKVHPALQTVLEGATAPEGPPGFDWMCRDSSCGHINPGDEESCLKCGSHITPAEWEVPVMRVLEPPGTLALLLLQKPHSGLLDLQCVSGDDEHL
  soluble on expression in E. coli: not soluble

## MKEVPMILEICVDDVAGLEAAVRGGADRIELCAALSGGGVTPSAGFMQRAATYGLPVSVMIRPRAGDFVFTHDEADVMKRDIDAARAAGLSGVVLGASRGDGSLDMALLEDLRRHADGMDATLHRAFDVAPDMEEALEAAISLGFPRILTSGGARSALEGVKTLARLSELAKGRIVIMPGAGVRPQSVQALLDSFPITEIHASCSAVPLYDPESRVAKLGFTGAGRKATDEAAVRELKTILSAHHKGGATLLEHHHHHH
  soluble on expression in E. coli: soluble

## MSLESRFCDICGKPAKTYQFGSLLCEDPECLKKAQKLRGGPAGHKLRVISVGSTNPVKVSAVEKAIEKTVGTMLVSSVDTKSGVSDQPQGFEETFKGAYNRAKGAFEKVNCVYGIGIEAGIVEIGEKKLDIHICVVYNGLDYSVGTSQAFQIPKDISDMINEGYECSKIAEETYRVKNIGQKNGIIGVLTDNNILREQLCIDSVVMAMIPKYRRNSQIREGHHHHHH
  soluble on expression in E. coli: soluble

## GPELYHYQECVRGTTVLLKEPCPSGTYEGNSPFHPLADNKFALTCTSTHFAFACADGTRHTYQLRARSVSPKLFIRQEEVQQELYSR
  soluble on expression in E. coli: soluble

## MGSDKIHHHHHHMVEFQSRIGKDGRLTVMEIPFDARETFQMPKGTIFVCGTINGIPYRGKLLSRGNGKQVLTIDKTLQKGLGYAGQDFPVNVAMACENQAEMVDEEKEAIPRLHSDMEAITAIAGRASVRKYMDKTVEPQKLEVILRAGLSAPSAKNKRPFHFVVVEDKAVLGAWAAGNSNAKMLSHAPCCIVVCGDGNVEGTRDFLVGGCAAATQNMLIAIHALGLGGVWCGVLRGKEWSRQVAADLYLPVKVEPLAVIALGYPTEQEKAPVPWDMKSHIHYERW
  soluble on expression in E. coli: not soluble

## SLVSSMHDLLLRNVRPMAGEACDIMIRNGKITGFGKFDAEPGLPVEDGKGAIAVPGLIDAHTHLDKTTWGMPWHVNNRAAILRERIDFERENRVQIGIDPHRQSMRHAIGLAANGGTHIRSHVDIDPTHGLKLVEGIWETREKLDGIIDIEVVAFPQSGVMVMPGTVELLDEALKQGCEVLGGIDPCGIDRDPKGQLDILFQLATKHGVPIDIHLHEAADLGAFTMELIFERIRANGMQGNVAISHAFALGMNDYLRVGRLIDEIARLDVAILTTGAPSASVPSIMRLKEAGVRVGGGCDGIRDTWGPWGQPDMLDRAKIIGMKNGLRSDVELAHVLHVVSRGGADVMGIEDYGMEIGCAADFTLLTGETLAHAVVDITPRPLVVKGGRVTARNGKAIVEAP
  soluble on expression in E. coli: soluble

## MSLKDRFDRFIDYFTEDEDSSLPYEKRDEPVFTSVNSSQEPALPMNQPSQSAGTKENNITRLHARQQELANQSQRATDKVIIDVRYPRKYEDATEIVDLLAGNESILIDFQYMTEVQARRCLDYLDGACHVLAGNLKKVASTMYLLTPVNVIVNVEDIRLPDEDQQGEFGFDMKRNRVRLEHHHHHH
  soluble on expression in E. coli: not soluble

## MNVKGFRFSAVEAAIKKPGRLDLALICSDAPAAVAAVYTTNKVKAAPVLLDMERTTSGTCRAVVVNSGNANACTGDRGMEDARETTSLVAERIGASEHEVLVCSTGVIGVPLPMERIRGGIPSLVAGLGSATLDQIAAAIMTTDTFPKLEARTGTAGGVGYTIAGIAKGAGMIMPNMATMLAFVVTDAAVDPQWLDRVFRRANDTSFNAITVDGDMSTNDTAIIMANGAAGNPVLSEGSEGAAEFAVLLEEVLLSLAKLIVKDGEGATKFVEVTVKGARSDADAKRAAMAVANSCLVKTAFFGQDANWGRIFAAVGYSGADVEPDRAELFFDDVRMVQGGVFAGGDAEARGTGVLRKKEFTVTVDLHLGDGRATVYTSDLSYDYVKINADYRTLEHHHHHH
  soluble on expression in E. coli: not soluble

## MDDLVKSSQKALENQVLRDQVSSYEREIMLQNENMEALRSFRHDMKRHFAEISVLASTGEIEQIKNYVSAMENNLVESRRLVDSGNTALDTVLNYMLQRAVDKKIQLNVKVVVPSDLKLSAYDMNIIFGNLLENAIEAQKDVKNPSIDLEINYLMDSLVVEISNRCLQKVIFKGGLPITTKQSVREHGYGLKNVKKVLDKYISTLDFECSDERFTVKILMKI
  soluble on expression in E. coli: not soluble

## MPERLSRMSKKHKMVWGTLNGLDDWDYNVFELQAAIDGDDINCKNDQSGCGALFITMYALVVKYGFLRKFEINERIFLNWLSAVEGGYHANPYHNSMHAADVLHITHYLLSKGGLAELCKLNDRQVLAALFAAAIHDYNHPGINNNFSILTQTYNATLYNDRSVLENMHVASVFELMRNPALNILACFSEEHWRDFRNTVIDMVLATDMSLHEKYMTQFKRRLSEKRPFTEDCDQNLALAMALKLADISNCCRPLPLYLKWSERVSDEFYTQGDRERSLGMSCSPFMDRQTPMIAEGQTSFINYIFIPFLEVMAEFLPSMGFTLGLAAVCKSHRLVG
  soluble on expression in E. coli: soluble
